{
  "source": "patent US20060121047A1",
  "about": "“Use of hmgb polypetides for increasing immune responses” (priority 2002, published 2006)",
  "molecules": {"B1": {"name": "B box: Recombinant GST-system human HMGB1 mutant containing only the B box, 74 amino acids, SEQ ID NO: 20 (protein, listed as Homo sapiens)", "chain": "FKDPNAPKRLPSAFFLFCSEYRPKIKGEHPGLSIGDVAKKLGEMWNNTAADDKQPYEKKAAKLKEKYEKDIAAY", "modifications": "GST system"}},
  "key": {"[1]": {"test_system": "RAW 264.7 cells", "test": "IL-1β release from RAW 264.7 cells (ELISA)", "format": "cell-based, murine", "conditions": "B box 0-10 μg/ml, 8 hours (FIG. 2B)", "description": "Murine macrophage-like RAW 264.7 cells (American Type Culture Collection, Rockville, Md.) were cultured in RPMI 1640 medium (Life Technologies, Grand Island N.Y.) supplemented with 10% fetal bovine serum (Gemini, Catabasas, Calif.), penicillin and streptomycin (Life Technologies) and were used at 90% confluence in serum-free Opti-MEM I medium (Life Technologies, Grand Island, N.Y.). […] Polymyxin B was not used in experiments of synthetic peptide studies.\nTo further examine the effect of HMGB1 B box on cytokine production, varying amounts of HMGB1 B box were evaluated for the effects on TNF, IL-1B, and IL-6 production in murine macrophage-like RAW 264.7 cells. Conditioned media were harvested and measured for TNF, IL-1β and IL-6 levels. TNF levels were measured as described herein, and IL-1β and IL-6 levels were measured using the mouse IL-1β and IL-6 enzyme-linked immunosorbent assay (ELISA) kits (R&D System Inc., Minneapolis, 1) and N>5 for all experiments."}, "[2]": {"test_system": "RAW 264.7 cells", "test": "TNF mRNA expression in RAW 264.7 cells (RNase protection assay)", "format": "cell-based, murine", "conditions": "10 μg/ml", "description": "The kinetics of B box-induced TNF release was also examined. TNF release and TNF mRNA expression was measured in RAW 264.7 cells induced by B box polypeptide or GST tag polypeptide only used as a control (vector) (10 μg/ml) for 0 to 48 hours. Supernatants were analyzed for TNF protein levels by an L929 cytotoxicity assay (N=3-5) as described herein. For mRNA measurement, cells were plated in 100 mm plate and treated in Opti-MEM I medium containing B box polypeptide or the vector alone for 0, 4, 8, or 24 hours, as indicated in FIG. 2D. The vector only sample was assayed at the 4 hour time point. Cells were scraped off the plate and total RNA was isolated by RNAzol B method in accordance with the manufacturer's instructions (Tel-Test “B”, Inc., Friendswood, Tex.). TNF (287 bp) was measured by RNase protection assay (Ambion, Austin, Tex.). Equal loading and the integrity of RNA was verified by ethidium bromide staining of the RNA sample on agarose-formaldehyde gel. […] TNF mRNA expression was maximal at 4 hours and decreased at 8 and 24 hours. […] A similar study was carried out measuring TNF protein released from RAW 264.7 cells 0, 4, 8, 24, 32 or 48 hours after administration of B box or vector only (GST tag), using the L929 cytotoxicity assay described herein. […] Data are representative of three separate experiments."}, "[3]": {"test_system": "D-galactosamine-sensitized Balb/c mice", "test": "Histology of organs of D-galactosamine-sensitized Balb/c mice", "format": "in vivo", "conditions": "1 mg/mouse i.p. plus D-gal, 7 hours", "description": "(§1) To further assess the lethality of the HMGB1 B box protein in vivo the HMGB1 B box was again administered to D-galactosamine-sensitized Balb/c mice. Mice (3 per group) received D-gal (20 mg/mouse) plus B box or vector (1 mg/mouse) intraperitoneally for 7 hours and were then sacrificed by decapitation. Blood was collected, and organs (liver, heart, kidney and lung) were harvested and fixed in 10% formaldehyde. Tissue sections were prepared with hematoxylin and eosin staining for histological evaluation (Criterion Inc., Vancouver, Canada). […] In FIG. 4J, hepatocyte dropouts are seen surrounded by accumulated polymorphonuclear leukocytes. The arrows in FIG. 4J point to the sites of polymorphonuclear accumulation (dotted) or apoptotic hepatocytes (solid)."}, "[4]": {"test_system": "D-galactosamine-sensitized Balb/c mice", "test": "Serum cytokine levels in D-galactosamine-sensitized Balb/c mice", "format": "in vivo", "conditions": "1 mg/mouse i.p. plus D-gal, 7 hours", "description": "as §1"}},
  "data": [
    {"molecule": "B1", "values": [
      {"measurement": "IL-1β release, dose dependence", "setting": "[1]", "result": "addition of 1 μg/ml or 10 μg/ml of B box resulted in increased release"},
      {"measurement": "IL-1β release, dose dependence", "setting": "[1]; listed as HMGB1 B box", "result": "dose-dependently stimulated release"},
      {"measurement": "time of maximal TNF mRNA expression", "setting": "[2]", "result": 4, "unit": "h"},
      {"measurement": "TNF mRNA expression", "setting": "[2]; 0, 4, 8 or 24 hours (vector at 4 hours) (FIG. 2D)", "result": "increased significantly"},
      {"measurement": "histology of heart", "setting": "[3]", "result": "some ischemic changes and loss of cross striation in myocardial fibers"},
      {"measurement": "histology of kidneys and lungs", "setting": "[3]", "result": "no abnormality"},
      {"measurement": "histology of liver", "setting": "[3]", "result": "active hepatitis"},
      {"measurement": "serum levels of IL-1β", "setting": "[4]", "result": "15+3 pg/ml"},
      {"measurement": "serum levels of IL-6", "setting": "[4]", "result": "315+93 pg/ml"}
    ]}
  ]
}
